Data: doi:10.1101/2022.05.06.490860 (bioRxiv, 2022)

Legend:
[1] = molecular target: YjoB-NTD (residues 1-159), oligomer form NTD-1 (B. subtilis 168) (UniProt O34703); assay: crystal structure
[2] = molecular target: KatA, dimer form (KatA-2) (B. subtilis) (UniProt P26901); assay: SEC
[3] = molecular target: the molecule itself; assay: SEC
[4] = molecular target: the molecule itself; assay: crystal structure
[5] = molecular target: T1, KatA, monomeric form (KatA-1) (B. subtilis, UniProt P26901 1-483); assay: SEC
T1 sequence (looked up): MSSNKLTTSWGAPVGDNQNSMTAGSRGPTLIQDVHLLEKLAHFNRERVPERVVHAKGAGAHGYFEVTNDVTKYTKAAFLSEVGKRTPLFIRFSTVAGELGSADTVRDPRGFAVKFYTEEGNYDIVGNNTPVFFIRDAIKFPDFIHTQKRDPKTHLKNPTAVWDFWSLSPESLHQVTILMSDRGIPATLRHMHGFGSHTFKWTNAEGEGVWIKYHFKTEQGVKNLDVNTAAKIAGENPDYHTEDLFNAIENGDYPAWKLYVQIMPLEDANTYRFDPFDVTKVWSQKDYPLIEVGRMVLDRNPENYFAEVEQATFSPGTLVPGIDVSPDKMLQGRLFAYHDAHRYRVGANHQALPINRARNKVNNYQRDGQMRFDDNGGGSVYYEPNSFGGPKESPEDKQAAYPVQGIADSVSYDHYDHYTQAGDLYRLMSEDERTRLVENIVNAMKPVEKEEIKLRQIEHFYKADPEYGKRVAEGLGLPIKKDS

Molecule: YjoB-NTD (residues 1-159), oligomer form NTD-1 (from UniProt O34703 1-159) (domain or fragment)
- stoichiometry N [1]: 12

Molecule: KatA, dimer form (KatA-2) (from UniProt P26901 1-483) (enzyme)
- stoichiometry N [2]: 2

B1: YjoB-AAA domain (residues 159-423) (domain or fragment, B. subtilis 168, UniProt O34703 159-423, looked up)
chain: RKVTVFTDGDGGTSREQEAIVREVQRSQVIMNPLLKKEIYRSIDQFFHSDKSFYQTYDIPYKRGILLYGPPGNGKTTLVKSIAGSIDAPVAYWQITEFTSSETIEEVFQAARRLAPAVLVIEDIDSMPEDVRSFFLNTLDGATSKEGLFLIGTTNYPEEIDPGLMNRAGRFDRAYEIGLPDEELRLEYMKMRGFGIFLSEGEIKNAAKLTEGFSFAQLGELYVSSALQWHQEGNHHIETMVKDMTGEQRKSQRGSWMERNKVGFH
- stoichiometry N [3]: 6

B2: Bacillus subtilis YjoB (residues 1-423) (natural protein, B. subtilis 168, UniProt O34703 1-423, looked up)
chain: MTNIPFIYQYEEKENERAAAGYGTFGYLITRIEETLYDQYGVFYELYASDDPNTEYWELLVEDVRSGSLEPEHVAYIFEKLEKKTFAYDEDEKEPDYTVHKSIRNSVYAYPEKGVAFARIPYFQDGSIMSFDCLFAVNDEKMRAFLEGVRPRLWEKSKRKVTVFTDGDGGTSREQEAIVREVQRSQVIMNPLLKKEIYRSIDQFFHSDKSFYQTYDIPYKRGILLYGPPGNGKTTLVKSIAGSIDAPVAYWQITEFTSSETIEEVFQAARRLAPAVLVIEDIDSMPEDVRSFFLNTLDGATSKEGLFLIGTTNYPEEIDPGLMNRAGRFDRAYEIGLPDEELRLEYMKMRGFGIFLSEGEIKNAAKLTEGFSFAQLGELYVSSALQWHQEGNHHIETMVKDMTGEQRKSQRGSWMERNKVGFH
- stoichiometry N [4]: 6
- binding result [5]: binds
